Reference: patent US20200270588A1, “GLUCOSYL TRANSFERASE POLYPEPTIDES AND METHODS OF USE” (Syngenta Participations AG, priority 2017, published 2020)
Positions count from the first letter of the chain named. Names and notes keep the numbering of the source.

B1: A432Q: bx9 SEQ ID NO:1 mutant (protein)
chain: MASSRTGAGAGGRVVVFPFPFQGHFNPVMRLARALHARGLAITVFHSGALDPADYPADYRFVPVTVEADPKLLASEDIAAIVTTLNASCDAPFRARLSALLAAEGRDSVRCVFTDVSWNAVLTASSDLGVPALGMMTASAASLRDYMAYRTLIDKGYLPVKEERKEDPVPELPPYLVKDLLRVDTSDLEEFAELLARTVTAARRASGLIFNTFPLIETDTLAEIHKALSVPVFAVAPLNKLVPTATASLHGVVQADRGCLQWLDTQQPGSVLYVSFGSMAAMDPHEFVELAWGLADSKRPFVWVVRPNLIRGFESGALPDGVEDEVRGRGIVVAWAPQEEVLAHPAVGGFLTHNGWNSTVEAISEGVPMVCCPRHGDQFGNMRYVCDVWKVGTELVGEQLERGQVKAAIDRLFGTKEGEEIKERMKEFKIAQAKGIGIGVDVDETASPRTDLTDLVDLIKSF
modifications: Zea mays
B2: A432T: bx9 SEQ ID NO:1 mutant (protein)
chain: B1 chain with Q432T
modifications: Zea mays
B3: A432H: bx9 SEQ ID NO:1 mutant (protein)
chain: B1 chain with Q432H
modifications: Zea mays
B4: A432N: bx9 SEQ ID NO:1 mutant (protein)
chain: B1 chain with Q432N
modifications: Zea mays

Legend:
[1] = UDP luminescence plate assay of E. coli extracts, mutants within SEQ ID No: 17, 2 mM metribuzin; assay type: biochemical, Zea mays; details: for RATIO of the metribuzin signal to the DMSO signal: 2 mM metribuzin vs DMSO control, same mutant; for SIGNAL: metribuzin signal of mutant divided by the signal of the SEQ ID No. 17 control / luminescence signal observed with 2 mM metribuzin: 2 mM metribuzin; for SIGNAL: metribuzin signal of mutant divided by the signal of the SEQ ID No. 17 control: relative to SEQ ID No: 17 control; for luminescence signal in the DMSO control / luminescence signal observed with 2 mM metribuzin: additional mutations within SEQ ID No: 17; for luminescence signal in the DMSO control: DMSO in place of metribuzin; for luminescence signal observed with 2 mM metribuzin: control = SEQ ID No: 17
[2] = UDP luminescence plate assay of E. coli extracts, mutants of SEQ ID No: 1, 2 mM metribuzin; assay type: biochemical, Zea mays; details: 2 mM metribuzin
Procedure: Optionally plate assays are stopped with brief heating to 95 C before returning to ice and addition of UDP-Glo detection reagent followed by incubation at lab temperature. […] In addition a UDP standard curve is run alongside each set of plate tests.
Assays were carried out on extracts of E. coli BL21 DE3 expressing the various C-terminally his-tagged library variants of SEQ ID NO:1 at the amino acid positions listed in Table 11 as described in Example 2 except, in this case, with 2 mM metribuzin in place of herbicide V.
Thus the ratio of the metribuzin to DMSO signal as well as the increase in signal relative to the w/t bx9 is used to help distinguish those mutations most likely to offer the highest activity to metribuzin. A follow up assay monitored by, for example, LC MS is one method to distinguish these cases more quantitatively.

Molecule | RATIO of the metribuzin signal to the DMSO signal [1] | SIGNAL: metribuzin signal of mutant divided by the signal of the SEQ ID No. 17 control [1] | luminescence signal in the DMSO control [1] | luminescence signal observed with 2 mM metribuzin [1] | factor of increased signal relative to the bx9 w/t control signal (first parentheses) [2] | ratio of activity with metribuzin relative to activity with DMSO (second parentheses) [2]
B1 | 1.20 | 4.09 | 6.22E+06 | 7.46E+06 | 6 | 1.35
B2 | 1.17 | 3.57 | 5.56E+06 | 6.51E+06 | 3.5 | 1.35
B3 | – | 3.44 | 6.08E+06 | 6.28E+06 | – | –
B4 | – | 4.21 | 6.13E+06 | 7.67E+06 | – | –
